{
  "source": "paper PMC4340053",
  "about": "“The DEAH-box Helicase Dhr1 Dissociates U3 from the Pre-rRNA to Promote Formation of the Central Pseudoknot” (PLoS Biology, 2015)",
  "proteins": {"B1": {"name": "Dhr1 (Ecm16) (Saccharomyces cerevisiae S288C) (protein)", "chain": "MGTYRKRFNEKARSGHMAKLKELKRIRNKQFTRQDENDERVENPDSAPAESSTTEPNANAEILEPLTEEEKKMKKRKLQELFTPKESKVSRLKKKRLDKFIEHQLKREERKTIIGKLQDYKIDTSLLTSSKRLGEGRQTKKEEFKEALSLERQGRGNEQTNEILYEEYEPKVWDEYGEGGSSEDDDGEDDFEASFGSMPKPTDNEEKKSSGFIDHRPAKFGGSGLSFGFSNIKVINKESKTPKKKYNWRQRVEMEELKKHGKEDEMDFDTTSEDDDEEEDQEEEDKMHPSENPLEEVESADSETGSEKFDQNDVANEFKDWANQEIKKLEGRDQELVTPTLNIDYKPIIRKEDLDDGLQEAYVPINENSTRKAFYVEVSRSDEIQKARIQLPVFGEEHKIMEAIHHNDVVIICGETGSGKTTQVPQFLYEAGFGAEDSPDYPGMVGITQPRRVAAVSMAERVANELGDHGHKVGYQIRFDSTAKEDTKVKFMTDGVLLREMMHDFKLTKYSSIIIDEAHERNINTDILIGMLSRCVRLRAKLHKENPIEHKKLKLIIMSATLRVSDFSENKTLFPIAPPVLQVDARQFPVSIHFNRRTAFNYTDEAFRKTCKIHQKLPPGAILVFLTGQQEITHMVKRLRKEFPFKKNSKYNKDLETPVSKMGINSKTTDLEAEDIDFSVQVIDQDKFKSAIRYEEDEGNSGNGEDEEDEEEEGFEEVLTEGQTANDPLYVLPLYSLLPTKEQMRVFQKPPQGSRLCIVATNVAETSLTIPGVRYVVDSGRSKERKYNESNGVQSFEVGWVSKASANQRSGRAGRTGPGHCYRLYSSAVFEHDFEQFSKPEILRMPVESIVLQMKSMAIHNIINFPFPTPPDRVALSKAIQLLQYLGALDNKEMITEDGKKMSLFPLSPRFSKMLLVSDEKACLPYIVAIVSALSVGDPFINEFELGINEISRKPNPDENLDDKIREHDESTPGMDPELKKELRSKFYKSRSQFSKLDKFSDVFRLLSVVSAMDYVPKEQKEIFMKKNFLRGKLMEEIVKLRKQLMYIIKSNTSKENIAVVIRNEDLKSDIPSVIQIKLLKQMICAGFVDHVAVRADVLFPDDAKITNRTSIINIPYIPVLATRTPNIEDCFVYIHPTSILNNLGEMPPKYMLYYSLHLGGNNKTRMNTLCDIASTPLANIARKGLLLTYSKPLTGQGLKTVNLSPTERYCYVVPRFGSTVDNDLKIGWDLNPIAVHQKKQKGQWTVIKFITRKGFQTITGEEKEKK", "notes": "full-length with C-terminal Leu-Glu-6xHis (pAJ2312), tag kept; expressed in E. coli BL21 Star (DE3), RNase-treated, Ni-NTA and SP HiTrap"}, "B2": {"name": "Dhr1 (Ecm16) (Saccharomyces cerevisiae S288C; K420A) (protein)", "chain": "B1 chain with K420A", "notes": "as for B1"}, "B3": {"name": "Dhr1 (Ecm16) (Saccharomyces cerevisiae S288C; D516A/E517A) (protein)", "chain": "B1 chain with D516A, E517A", "notes": "as for B1"}},
  "note": "Changes are numbered by the printed parent chain. In names and notes the source's numbering stands.",
  "data": [
    {"substrate": "Nc1ncnc2c1ncn2[C@@H]1O[C@H](COP(=O)(O)OP(=O)(O)OP(=O)(O)O)[C@@H](O)[C@H]1O", "test": "purified protein", "format": "biochemical, Saccharomyces cerevisiae", "conditions": "poly(A) RNA present, equimolar MgCl2, pH 8.0, room temperature", "units": {"Km": "µM", "kcat": "s⁻¹"}, "values": [
      {"protein": "B1", "Km": 106, "kcat": 0.217},
      {"protein": "B2", "Km": 1000, "kcat": 0.05},
      {"protein": "B3", "Km": 136, "kcat": 0.03}
    ]}
  ]
}
